The text below walks through data of US10239925B2, “Peptides and combination of peptides for use in immunotherapy against ovarian cancer and other cancers” (IMMATICS BIOTECHNOLOGIES GMBH, priority 2015, dated 2019).

In this assay the target is HLA-A*02:01 (Homo sapiens, UniProt P04439, D140Y/D185E/D98H/E176V/E277Q/G131W/G231S/I119V/I121R/I166T/I218V/L300P/L318F/N151K/N90K/P208A/P217A/Q86G/Q94H/R138H/R169H/T345S). The assay is described as follows: MHC binding assay (UV-ligand exchange, anti-β2m ELISA, peptide exchange yield). The note with it: binding to HLA-A*02:01. An outline of the steps:
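Yield of stabilized complexes quantified via the β2m light chain in an ELISA (streptavidin capture, 100-fold diluted monomers, HRP anti-β2m 2 ug/ml at 37 °C, TMB, A450). The complexes come from UV-triggered replacement of a photocleavable ligand by the candidate peptide.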
On the technique in general: In an ELISA, binding on a coated surface is turned into a signal by an enzyme label.

For “444 (GLLRDEALAEV; listed as Homo sapiens) [compound 444]”, the “Peptide exchange (MHC class I binding score, peptide exchange yield)” value (from here on “Peptide exchange”) is recorded as ““+++” (>50 = +++)”.
The entry for “447 (QLVPALAKV; listed as Homo sapiens) [compound 447]” is ““++” (>20% = ++)”; for “448 (NLLETKLQL; listed as Homo sapiens) [compound 448]” it is ““+++” (>50 = +++)”.
In the case of “449 (KLAEGLDIQL; listed as Homo sapiens) [compound 449]” it was ““+++” (>50 = +++)”; in that of “450 (FMIDASVHPTL; listed as Homo sapiens) [compound 450]”, ““+++” (>50 = +++)”.
The entry for “451 (LLLLDTVTMQV; listed as Homo sapiens) [compound 451]” is ““++” (>20% = ++)”.
For “452 (ILLEHGADPNL; listed as Homo sapiens) [compound 452]”, the “Peptide exchange” value was ““+++” (>50 = +++)”.
The entry for “453 (KLLEATSAV; listed as Homo sapiens) [compound 453]” is ““++” (>20% = ++)”; for “455 (SLLKEPQKVQL; listed as Homo sapiens) [compound 455]” it is ““++” (>20% = ++)”; for “456 (LLIGHLERV; listed as Homo sapiens) [compound 456]” it is ““+++” (>50 = +++)”.
The entry for “457 (SLLPGNLVEKV; listed as Homo sapiens) [compound 457]” is ““+++” (>50 = +++)”; for “458 (SLIDKLYNI; listed as Homo sapiens) [compound 458]” it is ““++” (>20% = ++)”.
As to “459 (ALITEVVRL; listed as Homo sapiens) [compound 459]”, the “Peptide exchange” value is reported as ““++” (>20% = ++)”.
The entry for “461 (VMFRTPLASV; listed as Homo sapiens) [compound 461]” is ““++” (>20% = ++)”.
In the case of “462 (KLAKQPETV; listed as Homo sapiens) [compound 462]” it was ““+++” (>50 = +++)”.
As to “464 (ALNDCIYSV; listed as Homo sapiens) [compound 464]”, the “Peptide exchange” value is ““+++” (>50 = +++)”.
The entry for “465 (QLCDLNAEL; listed as Homo sapiens) [compound 465]” is ““+++” (>50 = +++)”; for “466 (VLIANLEKL; listed as Homo sapiens) [compound 466]” it is ““++++” (>75% = ++++)”.
In the case of “467 (FLAKDFNFL; listed as Homo sapiens) [compound 467]” it was ““+++” (>50 = +++)”; in that of “468 (YLRSVGDGETV; listed as Homo sapiens) [compound 468]”, ““+++” (>50 = +++)”.
In the case of “469 (YLASDEITTV; listed as Homo sapiens) [compound 469]” it was ““+++” (>50 = +++)”; in that of “471 (YLYNNMIAKI; listed as Homo sapiens) [compound 471]”, ““+++” (>50 = +++)”.
“472 (KLLEVSDDPQV; listed as Homo sapiens) [compound 472]”: the “Peptide exchange” value was ““+++” (>50 = +++)”.
In the case of “473 (AMATESILHFA; listed as Homo sapiens) [compound 473]” it was ““+++” (>50 = +++)”; in that of “474 (YLDPALELGPRNV; listed as Homo sapiens) [compound 474]”, ““+++” (>50 = +++)”; in that of “475 (LLLNEEALAQI; listed as Homo sapiens) [compound 475]”, ““+++” (>50 = +++)”.
In the case of “476 (ALMERTGYSMV; listed as Homo sapiens) [compound 476]” it was ““+++” (>50 = +++)”.
In the case of “477 (ALLPASGQIAL; listed as Homo sapiens) [compound 477]” it was ““+++” (>50 = +++)”; in that of “478 (YLLHEKLNL; listed as Homo sapiens) [compound 478]”, ““+++” (>50 = +++)”.
As to “479 (SLFGNSGILENV; listed as Homo sapiens) [compound 479]”, the “Peptide exchange” value is listed as ““+++” (>50 = +++)”.
On to “480 (ALLEDSCHYL; listed as Homo sapiens) [compound 480]”, for which the “Peptide exchange” value is ““+++” (>50 = +++)”.
For the substance “481 (GLIEDYEALL; listed as Homo sapiens) [compound 481]”, the “Peptide exchange” value is ““+++” (>50 = +++)”.
Turning to “484 (SLIEKVTQL; listed as Homo sapiens) [compound 484]”, the “Peptide exchange” value is given as ““+++” (>50 = +++)”.
In the case of “485 (NVPDSFNEV; listed as Homo sapiens) [compound 485]” it was ““+++” (>50 = +++)”; in that of “486 (AVMESIQGV; listed as Homo sapiens) [compound 486]”, ““+++” (>50 = +++)”.
The entry for “487 (LLINSVFHV; listed as Homo sapiens) [compound 487]” is ““+++” (>50 = +++)”; for “488 (FLAEDPKVTL; listed as Homo sapiens) [compound 488]” it is ““+++” (>50 = +++)”; for “490 (FLLQHVQEL; listed as Homo sapiens) [compound 490]” it is ““+++” (>50 = +++)”.
The entry for “491 (GLNDRSDAV; listed as Homo sapiens) [compound 491]” is ““++” (>20% = ++)”; for “492 (SLFDGFADGLGV; listed as Homo sapiens) [compound 492]” it is ““+++” (>50 = +++)”; for “493 (GLLGEKTQDLIGV; listed as Homo sapiens) [compound 493]” it is ““+++” (>50 = +++)”.
As for “494 (ALQPEPIKV; listed as Homo sapiens) [compound 494]”, the “Peptide exchange” value is ““++” (>20% = ++)”.
The entry for “495 (FIFSEKPVFV; listed as Homo sapiens) [compound 495]” is ““+++” (>50 = +++)”.
The entry for “496 (FLVEKQPPQV; listed as Homo sapiens) [compound 496]” is ““+++” (>50 = +++)”.
In the case of “497 (GLLEKLTAI; listed as Homo sapiens) [compound 497]” it was ““+++” (>50 = +++)”.
In the case of “498 (KLWTGGLDNTV; listed as Homo sapiens) [compound 498]”, the “Peptide exchange” value is ““+++” (>50 = +++)”.
In the case of “500 (SLMEDQVLQL; listed as Homo sapiens) [compound 500]” it was ““+++” (>50 = +++)”.
The entry for “501 (LLDPNVKSIFV; listed as Homo sapiens) [compound 501]” is ““+++” (>50 = +++)”; for “502 (RLLAQVPGL; listed as Homo sapiens) [compound 502]” it is ““+++” (>50 = +++)”; for “503 (SLNHFTHSV; listed as Homo sapiens) [compound 503]” it is ““+++” (>50 = +++)”.
With “504 (GLSDGNPSL; listed as Homo sapiens) [compound 504]”, the “Peptide exchange” value is recorded as ““++” (>20% = ++)”.
In the case of “505 (SLAPGDVVRQV; listed as Homo sapiens) [compound 505]” it was ““++” (>20% = ++)”; in that of “506 (KLLGKVETA; listed as Homo sapiens) [compound 506]”, ““+++” (>50 = +++)”.
In the case of “507 (KLIDDQDISISL; listed as Homo sapiens) [compound 507]” it was ““+++” (>50 = +++)”; in that of “508 (ILAQEQLVVGV; listed as Homo sapiens) [compound 508]”, ““+++” (>50 = +++)”; in that of “509 (FLFDTKPLIV; listed as Homo sapiens) [compound 509]”, ““+++” (>50 = +++)”.
The entry for “510 (KLYSVVSQL; listed as Homo sapiens) [compound 510]” is ““++” (>20% = ++)”; for “512 (SLSEIVPCL; listed as Homo sapiens) [compound 512]” it is ““+++” (>50 = +++)”; for “513 (SLWPSPEQL; listed as Homo sapiens) [compound 513]” it is ““++” (>20% = ++)”.
As to “514 (ILVDWLVQV; listed as Homo sapiens) [compound 514]”, the “Peptide exchange” value is ““+++” (>50 = +++)”.
The entry for “515 (LLQELVLFL; listed as Homo sapiens) [compound 515]” is ““+++” (>50 = +++)”.
